We go through two molecules from patent publication US20210009693A1 (MABSPACE BIOSCIENCES SUZHOU, published 2021).

Assay [1] has as its target T1, human PD-L1 expressed on cells (human, UniProt Q9NZQ7 19-290).
T1 construct: whole, on cells; also called hPD-L1 expressed on HCC827; hPD-L1 on MC38/hPD-L1 cells
The experiment in a line: FACS, IFN-gamma stimulated HCC827 cells. Here is the method:
Log phase IFN-γ stimulated (500U/ml for 2 days) HCC827 cells were collected and resuspended in blocking buffer (5% BSA+PBS). 2×10\hat{ }5 cells were added to each tube and then washed once with PBS (1500 rpm, 5 mins, RT). The 100 μl/tube serial diluted biotinylated PD-L1 antibodies with blocking buffer were added into corresponding tubes and incubate at 4° C. for 1 hr.
For orientation: Flow cytometry measures light scatter and fluorescence of single cells or particles in a stream.

In assay [2] the target is T2, Human PD-L1/CD274 with C-Fc Tag (hPD-L1-Fc) (human, UniProt Q9NZQ7 19-238).
T2 construct: range 19-238; ACRO Biosystem PD1-H5258, made in HEK293; also called human PD-L1-Fc; not shown: Fc fragment of human IgG1 at C-terminus
T2 sequence (Q9NZQ7 19-238 limits assumed): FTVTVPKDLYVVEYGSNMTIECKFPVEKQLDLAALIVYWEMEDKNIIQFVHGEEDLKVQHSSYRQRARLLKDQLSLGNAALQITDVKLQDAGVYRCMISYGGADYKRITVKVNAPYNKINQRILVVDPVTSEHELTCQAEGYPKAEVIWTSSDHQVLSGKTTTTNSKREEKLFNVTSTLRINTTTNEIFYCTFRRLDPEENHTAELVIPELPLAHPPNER
Description: blocking ELISA on coated hPD-L1-Fc; blocked ligand: biotinylated hPD-1-N297A. Here is the method:
High-binding clear polystyrene 96 well plates (Nunc) were coated with 100 μl/well of coating solution consisting of 1 μg/ml hPD-L1-Fc overnight at 4° C. Then the plates were washed once on an automatic plate washer using washing buffer (PBS+0.1% Tween 20 (Sigma)). 200 μl of blocking buffer (PBS+1% BSA+1% normal goat serum+0.05% Tween-20) was added to each well and incubated 2 hours at room temp. […] The plates were then washed 3 times using the method described above. […] After the plates were washed 3 times, 100 μl/well of a solution of 1:5000 diluted HRP conjugated Neutravidin antibody (Pierce) in dilution buffer was then added to each well of the plate. After that the ELISA plates were allowed to incubate for 60 min at RT, then the plates were washed 3 times with 250 μl/well washing buffer. Finally, 100 μl/well of TMB was added to each well and the reaction was terminated using 0.64M H₂SO₄. The plates were read on a Thermo Multiscan FC at 450 nM (see FIG. 18A to 18D).
On the technique in general: ELISA stands for enzyme-linked immunosorbent assay.

Assay [3] concerns the target T1, human PD-L1 expressed on cells. Description: blocking FACS on HCC827 cells; blocked ligand: biotinylated hPD-1-N297A. On the procedure:
(§1) Log phase IFN-γ stimulated (500U/ml for 2 days) HCC827 cells were collected and resuspended in blocking buffer (5% BSA+PBS). 2×10\hat{ }5 cells were added to each tube and then washed once with PBS (1500 rpm, 5 mins, RT). The 100 μl/tube serial diluted PD-L1 antibodies (see FIG. 8) with blocking buffer were added into corresponding tubes and incubate at 4° C. for 1 hr. […] After washing for three times with PBS, 100 μl/tube streptavidin-PE 1:200 (EBiosciences) in blocking buffer was added to each tube. The cells were incubated at 4° C. for 1 hr and then washed twice with PBS, followed by resuspending cells in 150 μl PBS for each sample. The cells were then transferred into FACS tube and the binding of the antibodies to the cells were detected with flow cytometry (ACEA Bioscience Novocyte).

The target in assay [4] is hPD-L1 (antigen of the Biacore assay) (human, UniProt Q9NZQ7 19-238, limits assumed). Description: SPR (Biacore), antibody captured on anti-human Fc, antigen in flow. Here is the method: A CM5 sensor chip was activated in each flow cell by 7-min injection (10 μl/min) of freshly prepared 1:1 50 mM N-hydroxysuccinimide (NHS): 200 mM 1-ethyl-3-(3-dimethylaminopropyl)-carbodiimide (EDC). Then anti-human Fc antibody (GE Healthcare) in a concentration of 10 μg/ml in 10 mM sodium acetate buffer PH 5.0 was injected onto the activated chip at 10 μl/min (HBS-EP running buffer: 10 mM HEPES, 150 mM NaCl, 3.4 mM EDTA, 0.005% surfactant P20, pH 7.4). The remaining active coupling sites were blocked by 7 min injection of 1M ethanolamine at 10 μl/min. The immobilization level of each flow cell is ˜9000RU. Antibodies were captured in FC2 by anti-human Fe IgG (GE Healthcare) to 200˜300RU. FC1 was used as the reference cell. Antigen was injected at varying concentrations after capture of antibody. The association time for antibody binding antigen is 180s. Surface Regeneration condition is 120s at 10 μl/min in Gly pH1.5. The signals with captured antibody subtracted from those without captured antibody were calculated with Biacore X100 evaluation software ver. 2.0 (Biacore).
Chain of hPD-L1 (antigen of the Biacore assay) (Q9NZQ7 19-238 limits assumed): as above

Assay [5] concerns the target T1, human PD-L1 expressed on cells. Description: FACS, IFN-gamma stimulated HCC827 cells. The source holds these as a separate data set.
Assay [6] shares this target. Description: blocking FACS on HCC827 cells; blocked ligand: biotinylated hPD-1-N297A. Here is the method: as §1, with “RT).” for “RT). The 100 μl/tube serial diluted PD-L1 antibodies (see FIG. 8) with blocking buffer were added into corresponding tubes and incubate at 4° C. for 1 hr.”, “1:200” for “1:200 (EBiosciences)”, “Novocyte) (see FIGS. 20A and 20B).” for “Novocyte).”
The source holds these as a separate data set.

Read-outs that look alike come from different tables or passages of the source.

T1 sequence (Q9NZQ7 19-290): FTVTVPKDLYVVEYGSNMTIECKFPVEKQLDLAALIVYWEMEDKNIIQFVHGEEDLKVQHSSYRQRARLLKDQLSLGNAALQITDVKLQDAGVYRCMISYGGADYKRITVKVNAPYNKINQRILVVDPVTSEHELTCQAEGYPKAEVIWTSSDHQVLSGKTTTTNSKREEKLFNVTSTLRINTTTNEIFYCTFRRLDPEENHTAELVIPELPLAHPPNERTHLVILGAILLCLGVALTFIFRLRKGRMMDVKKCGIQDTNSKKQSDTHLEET

B1: 4B6-H3L3 (antibody, V domains shown)
VH: QVQLVQSGAEVVKPGASVKISCKASGYVFTDYYMNWVKQAPGQGLEWIGDINPNNGGTSYNQKFQGRATVTVDKSTRTAYMELSRLRSDDTAVYYCVKWGDGPFAYWGQGTLVTVSS
VL: DIQMTQSQSSLSASVGDRVTITCQASQNVGAAVAWYQQKPGKAPKLLIYSASNRYTGVPSRFSGSGSGTDFTLTISSMQPEDIATYFCQQYSNYPTFGSGTKLGIK
notes: Humanized; also called humanized 4B6 H3L3
One may read the EC50 (read off the curve) as the concentration needed to bring the measured effect to its halfway point. A higher EC50 (read off the curve) goes with weaker potency. In general, Kd refers to a measure of binding affinity in units of concentration. The term koff denotes the rate constant with which the complex falls apart. For orientation: kon means a measure of how fast the partners come together. The low end stands for slow association, the high end for fast association. For the molecule B1, in assay [1], the “EC50 (read off the curve)” value is around 0.1 µg/mL. The “IC50 (read off the curve)” value in assay [2] was around 0.06 µg/mL. Moreover, the “IC50 (read off the curve)” value in assay [3] was around 0.1 µg/mL. In assay [4], the Kd was 6.36 nM, the koff was 0.000927 s⁻¹ and the kon was determined as 150000 M⁻¹ s⁻¹.

B2: 4B6-H3L4 (antibody, V domains shown)
VH: QVQLVQSGAEVVKPGASVKISCKASGYVFTDYYMNWVKQAPGQGLEWIGDINPNNGGTSYNQKFQGRATVTVDKSTRTAYMELSRLRSDDTAVYYCVKWGDGPFAYWGQGTLVTVSS
VL: DIQMTQSPSSLSASVGDRVTITCQASQNVGAAVAWYQQKPGKAPKLLIYSASNLYTGVPSRFSGSGSGTDFTLTISSLQPEDIATYFCQQYSNYPTFGSGTKLGIK
notes: produced in 293 cells; light chain constant region not described; also called humanized 4B6 H3L4
Turning to B2, the “IC50 (read off the curve)” value in assay [2] was around 0.03 µg/mL; in assay [6] it was around 0.02 µg/mL. For the same molecule, the “EC50 (read off the curve)” value in assay [5] is around 0.04 µg/mL.
